Data on one molecule can be found in publication PMC2735845.

In this data set the target is RecQ;SSB113 (Escherichia coli;Escherichia coli, UniProt P15043;P0AGE0 1-609;2-178, |P177S). As to the kind of experiment: EMSA.

B1: 3'-OH partial duplex (o100/o30) (mixed)
DNA 1: GACGCTCGGTTCGTCTAGGACCGTCATTAGTATGTTGATATACATAGACCTTACCGCAGTGATTCGCTTGTCAGTCCATTGAAGCACAATTACCCACGC
DNA 2: CTAATGACGGTCCTAGACGAACCGAGCGTC
In the case of B1, the binding result is “binds”.
